Data: patent US20220259289A1 (Janssen / Centocor, published 2022)

B1: ISOP193ER9P1A3 (designed binder, not shown: small tags and cut ends)
chain: LPAPKNLVVSRVTEDSARLSWTTPDAAFDSFDIYYFEHPVGGEAIVLTVPGSERSYDLTGLKPGTEYLVTIYGVKGGYLSKPLSAIFTT
B2: ISOP193FR9P1A5 (designed binder, not shown: small tags and cut ends)
chain: LPAPKNLVVSRVTEDSARLSWTAPDAAFDSFEIYYIEPIAPGEAIVLTVPGSERSYDLTGLKPGTEYWVTIYGVKGCDWSDPLSAIFTT
B3: ISOP193FR9P1C1 (designed binder, not shown: small tags and cut ends)
chain: LPAPKNLVVSRVTEDSARLSWTAPDAAFDSFEIYYFENENGGEAIVLTVPGSERSYDLTGLKPGTEYLVTIYGVKGCDWSDPLSAIFTT
B4: ISOP193FR9P1C5 (designed binder, not shown: small tags and cut ends)
chain: LPAPKNLVVSRVTEDSARLSWTAPDAAFDSFHIYYLEQYSRGEAIVLTVPGSERSYDLTGLKPGTEYLVTIYGVKGCDWSDPLSAIFTT
B5: ISOP193FR9P1C9 (designed binder, not shown: small tags and cut ends)
chain: LPAPKNLVVSRVTEDSARLSWTAPDAAFDSFQIYYFEWVVGGEAIVLTVPGSERSYDLTGLKPGTEYLVTIYGVKGCDWSDPLSAIFTT
B6: ISOP193FR9P1D5 (designed binder, not shown: small tags and cut ends)
chain: LPAPKNLVVSRVTEDSARLSWTAPDAAFDSFYIRYIEDVDFGEAIVLTVPGSERSYDLTGLKPGTEYLVTIYGVKGCDWSDPLSAIFTT
B7: ISOP193FR9P1D7 (designed binder, not shown: small tags and cut ends)
chain: LPAPKNLVVSRVTEDSARLSWTAPDAAFDSFEIYYAEYFKNGEAIVLTVPGSERSYDLTGLKPGTEYLVTIYGVKGCDWSDPLSAISTT
B8: ISOP193FR9P1E10 (designed binder, not shown: small tags and cut ends)
chain: LPAPKNLVVSRVTEDSARLSWTTPDAAFDSFHIHYLEGEWGGEAIVLTVPGSERSYDLTGLKPGTEYLVTIYGVKGCDWSDPLSAIFTT
B9: ISOP193FR9P1F8 (designed binder, not shown: small tags and cut ends)
chain: LPAPKNLVVSRVTEDSARLSWTAPDAAFDSFDINYFENELGGEAIVLTVPGSERSYDLTGLKPGTEYLVTIYGVKGCDWSDPLSAIFTT
B10: ISOP193FR9P1G7 (designed binder, not shown: small tags and cut ends)
chain: LPAPKNLVVSRVTEDSARLSWTAPDAAFDSFHIHYLEGEWGGEAIVLTVPGSERSYDLTGLKPGTEYLVTIYGVKGCDWSDPLSAIFTT
B11: ISOP193FR9P1G8 (designed binder, not shown: small tags and cut ends)
chain: LPAPKNLVVSRVTEDSARLSWTAPDAAFDSFEIYYFENELGGEAIVLTVPGSERSYDLTGLKPGTEYLVTIYGVKGCDWSDPLSAIFTT
B12: ISOP193FR9P1G9 (designed binder, not shown: small tags and cut ends)
chain: LPAPKNLFVSRVTEDSARLSWTAPDAAFDSFQIYYREQWWDGEAIVLTVPGSERSYDLTGLKPGTEYLVTIYGVKGCDWSDPLSAIFTT
B13: ISOP193FR9P1G11 (designed binder, not shown: small tags and cut ends)
chain: LPAPKNLVVSRVTEDSARLSWTAPDAAFDSFTIYYFENENGGEAIVLTVPGSERSYDLTGLKPGTEYLVTIYGVKGCDWSDPLSAIFTT

Experiments:
[1] = target: unrelated Fc-fused recombinant protein; experiment: ELISA, negative control Fc protein
[2] = target: T1, human serum albumin (human, UniProt P02768 25-609); experiment: ELISA, negative control HSA
T1 construct: Negative control of the ELISA; also called HSA
T1 sequence (P02768 25-609 limits assumed): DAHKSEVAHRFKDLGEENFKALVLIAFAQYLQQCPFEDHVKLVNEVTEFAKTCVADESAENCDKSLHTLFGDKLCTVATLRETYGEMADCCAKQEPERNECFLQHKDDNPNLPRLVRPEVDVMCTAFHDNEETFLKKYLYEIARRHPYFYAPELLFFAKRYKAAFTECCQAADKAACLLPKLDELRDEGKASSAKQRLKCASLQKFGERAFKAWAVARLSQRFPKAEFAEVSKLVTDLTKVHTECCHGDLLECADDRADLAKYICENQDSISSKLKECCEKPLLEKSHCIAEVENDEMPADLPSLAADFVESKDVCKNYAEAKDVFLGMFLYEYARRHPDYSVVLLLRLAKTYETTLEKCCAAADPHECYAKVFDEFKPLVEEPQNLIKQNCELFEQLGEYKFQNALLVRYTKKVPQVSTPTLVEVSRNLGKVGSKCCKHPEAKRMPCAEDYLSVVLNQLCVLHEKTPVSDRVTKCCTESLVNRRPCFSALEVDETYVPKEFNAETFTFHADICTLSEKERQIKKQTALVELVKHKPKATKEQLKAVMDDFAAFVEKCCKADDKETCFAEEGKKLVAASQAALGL
Summary of the method: (§1)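 Biotinylated CD137-Fc, an unrelated Fc-fusion protein or human serum albumin captured 1 h on streptavidin plates blocked in Starting Block T20; diluted bacterial lysate applied 1 h. Bound binders detected with HRP-conjugated anti-Centyrin antibody (PAB25) for 1 h, then POD substrate read-out.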

[3] = target: T2, recombinant biotinylated CD137 protein (Fc-fusion protein, R&D Systems 838-4B) (human, UniProt Q07011 24-186, biotinylated, sites not stated); experiment: ELISA, lysate on biotinylated CD137-Fc
T2 construct: Bought Fc fusion; also called CD137-Fc
Summary of the method: as §1

[4] = target: extracellular domain of human CD137 on the surface of CHO-K1 cells (human, UniProt Q07011 24-186); experiment: flow cytometry on CHO-K1 cells with human CD137 ECD
Protocol: Cell surface binding was analyzed via flow cytometry. Cenyrins were prepared at a maximal concentration of 500 nM in the presence of 125 nM anti His-mIgG1 antibody and then serially diluted in PBS/1% FCS buffer. Samples were then applied to approx 100 000 CHO-Kl cells expressing the extracellular domain of human CD137 on their surface. Unbound Centyrin/Antibody complexes were washed away and bound FN3 domains were detected by the addition of goat anti mouse-FITC labeled antibody. Samples were then aquired by flow cytometry. Subsequently, Mean flurescence intensity was plotted against the log Centyrin concentration and EC50 values were calculated by nonlinear regression using GraphPad Prism.

[5] = target: T3, recombinant human CD137-Fc-IgG1 (human, UniProt Q07011 24-186, limits assumed); experiment: SPR (Biacore T100), CD137-Fc captured by anti human IgG, 1:1 model
T3 construct: Captured by anti human IgG on the Biacore chip
Protocol: For selected FN3 domains, binding to recombinant CD137-Fc was evaluated using surface plasmon resonance (Biacore T100). For each cycle approximately 500 RU of recombinant human CD137-Fc-IgG1 was captured via an anti human IgG immobilized on the surface of a CMS chip. Once CD137-Fc protein was captured, increasing concentrations of Centyrin candidates were injected for 120 s and dissociation was then analyzed for 240 s. A flow cell immobilized with just the anti human IgG1 antibody served as reference flow cell. Kd values were subsequently extrapolated using a 1:1 kinetic binding model (BiaEvaluation software).

[6] = target: human serum albumin (human) (UniProt P02768); experiment: ELISA, negative control HSA
human serum albumin (human), sequence (P02768 25-609 limits assumed): as above

Binder | ELISA Fc Control (RLU) [1] | ELISA HSA (RLU) [2] | ELISA CD137 (RLU) [3] | EC50 [4] | Kd [5] | ELISA HSA (RLU) [6]
B1 | 3040 RLU | 880 RLU | 1.42e+07 RLU | 10.2 nM | 8.3 nM | 
B2 | 95100 RLU |  | 9.07e+06 RLU |  |  | 26200 RLU
B3 | 36800 RLU |  | 1.41e+07 RLU |  |  | 8160 RLU
B4 | 79300 RLU |  | 8.66e+06 RLU |  |  | 19200 RLU
B5 | 21000 RLU |  | 1.23e+07 RLU |  |  | 4000 RLU
B6 | 51700 RLU |  | 6.05e+06 RLU |  |  | 10800 RLU
B7 | 15000 RLU |  | 2.2e+06 RLU |  |  | 2640 RLU
B8 | 133000 RLU |  | 2.05e+06 RLU |  |  | 31000 RLU
B9 | 25700 RLU |  | 8.57e+06 RLU |  |  | 5040 RLU
B10 | 42300 RLU |  | 5.5e+06 RLU |  |  | 11000 RLU
B11 | 25100 RLU |  | 1.45e+07 RLU |  |  | 5040 RLU
B12 | 33600 RLU |  | 1.28e+07 RLU |  |  | 6800 RLU
B13 | 60600 RLU |  | 1.08e+07 RLU |  |  | 11000 RLU
